In PMC2581436, “Role of Amphipathic Helix of a Herpesviral Protein in Membrane Deformation and T Cell Receptor Downregulation” (PLoS Pathogens, 2008):

Target: the molecule itself
Experiment: native gel or EMSA; Blue Native PAGE (10% native gel) of whole-cell lysates of 293T cells solubilized with 2.5% Triton X-100; GFP fusions detected by anti-GFP immunoblot; markers aldolase ~160 kDa and BSA 66/132 kDa

B1: GFP-Tip^211-256 (domain or fragment)
chain: ANERNIVKDLKRLENKINVIICLVVVILAVLLLVTVLSILHIGMKS
notes: source: 293T, transiently expressing, detergent-solubilized lysate
  stoichiometry N: ~4
